Measurements: US20240342283A1 (SHANDONG BOAN BIOTECHNOLOGY, published 2024)

Assays:
[1] = molecular target: T1, Biotinylated Human ROR1 Protein, His, Avitag (Acro biosystem) (human, UniProt Q01973 30-403, biotinylated (Avitag)); experiment: flow cytometry of CAR-electroporated primary T cells stained with Biotinylated Human ROR1 Protein, His, Avitag
T1 construct: Bought reagent; not shown: His tag and Avitag
From the text: To screen for CAR activity, the above-obtained T cells were electroporated with PiggyBac plasmids (shown in FIG. 3) with the CAR cassette as well as PiggyBac Transposon mRNA. CAR expression in primary T cells was confirmed by flow cytometry using Biotinylated Human ROR1 Protein, His, Avitag (Acro biosystem) (FIG. 18A).

[2] = molecular target: T2, Receptor tyrosine kinase-like orphan receptor 1 (ROR1) on ROR1-positive cells (human, UniProt Q01973 30-937); experiment: cell-based or functional assay
[3] = molecular target: T2, Receptor tyrosine kinase-like orphan …; experiment: cell-based or functional assay; remark: listed apart in the source

T2 sequence (Q01973 30-937): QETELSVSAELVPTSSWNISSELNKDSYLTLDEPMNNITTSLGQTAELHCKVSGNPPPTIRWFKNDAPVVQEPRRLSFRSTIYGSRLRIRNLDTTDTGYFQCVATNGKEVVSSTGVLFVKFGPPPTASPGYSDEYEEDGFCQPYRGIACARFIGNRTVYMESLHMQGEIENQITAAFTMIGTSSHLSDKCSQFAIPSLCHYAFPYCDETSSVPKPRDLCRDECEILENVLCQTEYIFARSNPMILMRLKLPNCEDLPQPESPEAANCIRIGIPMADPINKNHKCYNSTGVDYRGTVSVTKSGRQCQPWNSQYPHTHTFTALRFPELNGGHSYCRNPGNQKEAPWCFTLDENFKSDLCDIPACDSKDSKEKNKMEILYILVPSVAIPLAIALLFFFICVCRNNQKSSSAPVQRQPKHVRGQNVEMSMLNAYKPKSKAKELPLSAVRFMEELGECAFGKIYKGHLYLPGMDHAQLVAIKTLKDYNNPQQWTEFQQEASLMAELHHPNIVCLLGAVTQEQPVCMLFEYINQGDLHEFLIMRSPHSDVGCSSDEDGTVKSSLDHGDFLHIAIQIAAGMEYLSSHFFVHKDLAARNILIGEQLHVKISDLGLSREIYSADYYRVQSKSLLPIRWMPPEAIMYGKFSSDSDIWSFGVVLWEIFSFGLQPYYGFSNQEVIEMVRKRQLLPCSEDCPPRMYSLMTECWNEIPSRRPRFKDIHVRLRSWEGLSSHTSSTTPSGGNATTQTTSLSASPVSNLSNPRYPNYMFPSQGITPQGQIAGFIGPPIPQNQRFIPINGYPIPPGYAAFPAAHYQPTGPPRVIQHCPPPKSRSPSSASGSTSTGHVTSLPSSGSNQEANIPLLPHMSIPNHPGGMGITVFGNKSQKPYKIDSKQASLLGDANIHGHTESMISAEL
T1 sequence (Q01973 30-403 limits assumed): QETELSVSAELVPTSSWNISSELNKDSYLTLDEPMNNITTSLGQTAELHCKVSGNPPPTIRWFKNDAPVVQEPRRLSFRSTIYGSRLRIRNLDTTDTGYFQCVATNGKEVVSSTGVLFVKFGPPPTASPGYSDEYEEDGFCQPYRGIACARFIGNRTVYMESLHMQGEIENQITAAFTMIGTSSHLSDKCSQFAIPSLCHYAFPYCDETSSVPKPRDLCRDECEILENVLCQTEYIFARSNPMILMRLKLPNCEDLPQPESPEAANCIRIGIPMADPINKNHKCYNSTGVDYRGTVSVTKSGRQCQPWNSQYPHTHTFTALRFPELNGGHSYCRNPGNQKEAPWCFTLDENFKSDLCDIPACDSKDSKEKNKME

CAR Positive rate [1] [%]	Specific lysis (%) of MDA-MB-231, Effector to Target ratio 1:1 [2] [%]	Specific lysis (%) of MDA-MB-231, Effector to Target ratio 3:1 [2] [%]	IFN-gamma cytokine release (pg/mL), co-culture with MDA-MB-231, Effector to Target ratio 1:1 [3] [pg/mL]	IFN-gamma cytokine release (pg/mL), co-culture with MDA-MB-231, Effector to Target ratio 3:1 [3] [pg/mL]	Binder
28	10.6	32.6	14600	36800	RC005c (other, Chimeric antigen receptor on electroporated Jurkat cells or primary T cells; also called RC005c (hu709 VH4VL2); hu709 VH4VL2 CAR) CAR: EVQLVQSGAEVKKPGATVKISCKVSGYTFTDYEMHWVKQAPGKGLEWIGAIDPETGGTAYNQKFKGRATITADKSSSTAYMELSSLRSEDSAVYYCTPYYGYAMDYWGQGTLVTVSSGGGGSGGGGSGGGGSDIQLTQSPSFLSASVGDRVTITCKASQNVGTNVAWYQQKPGKAPKLLIYWASTRHTGVPSRFSGSGSGTEFTLTISSLQPEDFATYFCQQYSSYPLTFGQGTKLEIKTTTPAPRPPTPAPTIASQPLSLRPEACRPAAGGAVHTRGLDFACDIYIWAPLAGTCGVLLLSLVITLYCKRGRKKLLYIFKQPFMRPVQTTQEEDGCSCRFPEEEEGGCELRVKFSRSADAPAYKQGQNQLYNELNLGRREEYDVLDKRRGRDPEMGGKPRRKNPQEGLYNELQKDKMAEAYSEIGMKGERRRGKGHDGLYQGLSTATKDTYDALHMQALPPR
30.7	12.6	28.9	20500	40600	R12 ROR1 CAR (other, Benchmark chimeric antigen receptor on electroporated primary T cells; also called R12 CAR; Benchmark Control R12) CAR: QEQKVESGGRLVTPGGSLTLSCKASGFDFSAYYMSWVRQAPGKGLEWIATIYPSSGKTYYATWVNGRFTISSDNAQNTVDLQMNSLTAADRATYFCARDSYADDGALFNIWGPGTLVTISSGGGGSGGGGSGGGGSELVLTQSPSVSAALGSPAKITCTLSSAHKTDTIDWYQQLQGEAPRYLMQVQSDGSYTKRPGVPDRFSGSSSGADRYLIIPSVQADDEADYYCGADYIGGYVFGGGTQLTVTGTTTPAPRPPTPAPTIASQPLSLRPEACRPAAGGAVHTRGLDFACDIYIWAPLAGTCGVLLLSLVITLYCKRGRKKLLYIFKQPFMRPVQTTQEEDGCSCRFPEEEEGGCELRVKFSRSADAPAYKQGQNQLYNELNLGRREEYDVLDKRRGRDPEMGGKPRRKNPQEGLYNELQKDKMAEAYSEIGMKGERRRGKGHDGLYQGLSTATKDTYDALHMQALPPR
